Data from patent publication US5993803A, “Method of reducing the severity of host vs graft reaction by down-regulating hsp60 autoimmunity” (Yeda Research and Development Co., Ltd., priority 1996, dated 1999).
Entries after “also recorded” stand apart in the source; their conditions may differ.

How the values were obtained:
[1] = system: spleen cells of treated NOD or C57BL mice stimulated with irradiated BALB/c spleen cells; test: Mixed lymphocyte reaction (MLR) of spleen cells from treated, grafted mice with irradiated BALB/c spleen cells; assay type: cell-based, mouse
Excerpt: T cells reactive to hsp60 and other hsp molecules have been isolated from cardiac allografts (Moliterno et al., 1995) as well as from other inflammatory lesions (Selmaj et al., 1991; Mor et al., 1992). […] It is theorized that the constitutive hyper-expression of hsp60 in the donor Eα-hsp60 skin amplifies the activation of anti-hsp60 autoimmune T cells at the site and enhance the local immune response by adding pro-inflammatory (TH1-type) cytokines, such as INFγ (Finkelman et al., 1990), to the allograft reaction, thereby inciting and abetting other T cells responsive to the foreign antigens. Conversely, hsp60 autoimmune T cells that have been activated to produce anti-inflammatory cytokines of the TH2-type, such as IL-10, should serve to shut down the effector immune reaction by a form of by-stander suppression (Weiner et al., 1994). To test whether treatment with hsp60 peptides might modify the cytokine response, NOD or C57BL mice were treated with hsp60 or with hsp60 peptide p12. Control mice were untreated or were treated with saline emulsified in IFA. The mice were grafted with BALB/c skin grafts and twenty days later, just at the beginning of graft rejection in the control mice, groups of 5-10 mice were sacrificed and their spleen cells assayed individually in a standard mixed lymphocyte reaction (MLR) with irradiated BALB/c spleen cells as stimulators (Lohse et al., 1990). […] However, the MLR media were also tested for the presence of the TH1 cytokine IFNγ and the TH2 cytokine IL-10.

[2] = system: BALB/c (H-2^d) skin allograft rejection in C57BL/6 (H-2^b) mice; assay type: in vivo, mouse; settings: C57BL/6 recipients; 50 μg in incomplete Freund's adjuvant s.c. 2 weeks before transplantation; Wilcoxon test; FIG. 3A
Procedure: (§1) FIGS. 3A and 3B show the effects of treating C57BL6 (H-2^b) mice (FIG. 3A) or wild-type NOD (H-2^g7) mice (FIG. 3B) with hsp60 (50 μg in incomplete Freund's adjuvant; Sigma) administered subcutaneously in the back 2 weeks before transplantation of BALB/c (H-2^d) skin (Elias et al., 1994; Elias et al., 1995). […] Control mice were untreated (open squares) or treated with incomplete Freund's adjuvant containing 50 μg of recombinant glutathione transferase (open diamonds).

[3] = system: BALB/c (H-2^d) skin allograft rejection in wild-type NOD (H-2^g7) mice; assay type: in vivo, mouse; settings: wild-type NOD recipients; 50 μg in incomplete Freund's adjuvant s.c. 2 weeks before transplantation; Wilcoxon test; FIG. 3B
Procedure: as §1
Wild-type NOD (H-2^g7) mice were treated with various hsp60 peptides in incomplete Freund's adjuvant. […] Control mice were untreated (open square) or were treated with incomplete Freund's adjuvant containing 50 μg of peptide p11, a control non-immunogenic hsp60 peptide (closed diamond). […] Each group contained 10-12 mice.
Patches of dorsal skin of one cm^2 were removed from anesthetized recipient mice treated with Nembutal 6 mg/ml, 0.25 ml per mouse and replaced by the donor skin grafts. Histoacryl (B. Braun Meleungen AG, D-34209 Melsungen, Germany) was applied around the grafts and Nobecutan (ASTR, Astra Tech, POB 13, Glos G15, UK) was sprayed over them.

B1: hsp60: Recombinant human 60 kDa heat shock protein, SEQ ID NO:1 (protein, UniProt P10809 27-573, looked up)
60 kDa heat shock protein, …: AKDVKFGADARALMLQGVDLLADAVAVTMGPKGRTVIIEQSWGSPKVTKDGVTVAKSIDLKDKYKNIGAKLVQDVANNTNEEAGDGTTTATVLARSIAKEGFEKISKGANPVEIRRGVMLAVDAVIAELKKQSKPVTTPEEIAQVATISANGDKEIGNIISDAMKKVGRKGVITVKDGKTLNDELEIIEGMKFDRGYISPYFINTSKGQKCEFQDAYVLLSEKKISSIQSIVPALEIANAHRKPLVIIAEDVDGEALSTLVLNRLKVGLQVVAVKAPGFGDNRKNQLKDMAIATGGAVFGEEGLTLNLEDVQPHDLGKVGEVIVTKDDAMLLKGKGDKAQIEKRIQEIIEQLDVTTSEYEKEKLNERLAKLSDGVAVLKVGGTSDVEVNEKKDRVTDALNATRAAVEEGIVLGGGCALLRCIPALDSLTPANEDQKIGIEIIKRTLKIPAMTIAKNAGVEGSLIVEKIMQSSSEVGYDAMAGDFVNMVEKGIIDPTKVVRTALLDAAGVASLLTTAEVVVTEIPKEEKDPGMGAMGGMGGGMGGGMF
For B1, the “T-cell proliferation by thymidine incorporation in MLR, treated vs control groups” value ([1]; spleen cells taken 20 days after BALB/c skin grafting, hsp60 and p12 treated mice reported together) was “no significant differences”, the “IL-10 produced in MLR media” value ([1]; spleen cells taken 20 days after grafting, hsp60 and p12 treated mice pooled, control mice 3.5±0.6, p=0.004) was 8 ± 1.4 ng/mL and the “IFNγ produced in MLR media” value ([1]; spleen cells taken 20 days after grafting, hsp60 and p12 treated mice pooled, control mice 9.25±1.7, p=0.002) was 3.13 ± 1.4 ng/mL. The “survival of BALB/c skin grafts (delay in skin allograft rejection)” value [2] was “significantly prolonged survival; also recorded: significant” and the “survival of BALB/c skin grafts (delay in skin allograft rejection)” value [3] was “delayed rejection; also recorded: significant”.
